From the supplement of paper PMC10126150
± gives the standard deviation of the averaged measurements.

System: ATP
Experiment: switch fluorescence ratio, 500 uM ATP over buffer (Cy3 cluster intensity, sum of 5 cycles each) (fold (ratio)); higher = stronger signal-on switching upon ATP binding; sequences stand for … in TCGTCGGCAGCGTCAGATGTGTATAAGAGACAGTTTTTTTTTTTTTTTTTTTTTTTTT…TC
Conditions: aptamer strand: ATP DNA aptamer (quencher-CACCTGGGGGAGTATTGCGGAGGAAGG + anchor), 100 nM annealed; ATP concentration: 500 uM
Procedure, shortened: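 Imaging in selection buffer was followed by imaging after 15 min with 500 uM ATP at 22 °C, for Cy3-labelled switching-strand clusters annealed to 100 nM quencher-labelled ATP aptamer on a modified Illumina MiSeq flow-cell. Five of these buffer/ATP cycles ran, separated by NaOH stripping and re-annealing. The fluorescence ratio per cluster is summed target-cycle over summed buffer-cycle Cy3 intensity, averaged per switch-domain sequence; clusters outside 100-1000 RFU were removed.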
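Also: ATP exposure 15 min at 22 °C before imaging.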

Sequence | switch fluorescence ratio
GAGGAGAGGT | 1 ± 0.015
GAGGAGGGGC | 1.02 ± 0.054
GAGGATCGGG | 0.992 ± 0.023
GAGGATGAGG | 0.954 ± 0.0017
GAGGATGGTT | 0.964 ± 0.04
GAGGATTAGC | 0.99 ± 0.036
GAGGCAGACT | 1.23 ± 0.019
GAGGCAGCGA | 1.3 ± 0.016
GAGGCCGGGG | 0.9956 ± 0.0026
GAGGCGGATG | 0.997 ± 0.028
GAGGCGTTGC | 1.06 ± 0.05
GAGGCTATCT | 1.07 ± 0.0035
GAGGCTTAAG | 1.01 ± 0.019
GAGGGAAAGG | 1.02 ± 0.052
GAGGGAGGCA | 0.994 ± 0.019
GAGGGAGGGT | 1.02 ± 0.032
GAGGGATACA | 0.99 ± 0.043
GAGGGCATGA | 0.993 ± 0.074
GAGGGCATTT | 0.985 ± 0.02
GAGGGCCGCA | 1.05 ± 0.011
GAGGGCCGTG | 0.933 ± 0.043
GAGGGGAATT | 0.983 ± 0.014
GAGGGGACTT | 1.09 ± 0.13
GAGGGGCAGG | 1.02 ± 0.074
GAGGGGCCGG | 0.972 ± 0.057

Sequence | switch fluorescence ratio
GAGGGGCTGT | 0.981 ± 0.038
GAGGGGGCCA | 1.02 ± 0.027
GAGGGGGGGT | 1.08 ± 0.34
GAGGGGGTCT | 1.01 ± 0.064
GAGGGGGTTG | 1.01 ± 0.048
GAGGGGTCCT | 1.24 ± 0.39
GAGGGGTGAC | 0.979 ± 0.021
GAGGGGTGGT | 0.987 ± 0.029
GAGGGGTTTT | 1.01 ± 0.04
GAGGGTAGCG | 0.96 ± 0.059
GAGGGTATAG | 1.02 ± 0.085
GAGGGTTGGG | 1.06 ± 0.045
GAGGGTTGTT | 0.997 ± 0.019
GAGGTAAGGG | 0.998 ± 0.029
GAGGTAATGT | 1.039 ± 0.0025
GAGGTACGCT | 1.01 ± 0.021
GAGGTACTTG | 0.975 ± 0.039
GAGGTAGATA | 1.03 ± 0.046
GAGGTCAGGT | 1.01 ± 0.021
GAGGTCGGCA | 1.02 ± 0.011
GAGGTGAGAG | 1.02 ± 0.058
GAGGTGAGGG | 1 ± 0.057
GAGGTGCAGG | 0.9932 ± 0.008
GAGGTGCGGG | 0.99 ± 0.023
GAGGTGCGGT | 0.975 ± 0.049

Sequence | switch fluorescence ratio
GAGGTGGGGA | 0.9826 ± 0.0055
GAGGTGGTGC | 0.966 ± 0.072
GAGGTGGTGG | 0.998 ± 0.036
GAGGTTATCA | 1.01 ± 0.013
GAGGTTGACA | 1.03 ± 0.017
GAGGTTGGAG | 1 ± 0.00098
GAGGTTGGCA | 0.994 ± 0.01
GAGGTTTAGG | 0.986 ± 0.042
GAGGTTTGCG | 0.965 ± 0.028
GAGGTTTTTA | 0.986 ± 0.027
GAGGTTTTTG | 0.994 ± 0.032
GAGTAAAAAG | 0.99 ± 0.014
GAGTAAATTG | 0.987 ± 0.019
GAGTAACGGT | 1.03 ± 0.027
GAGTAACTGT | 0.966 ± 0.016
GAGTAAGAGT | 1.0175 ± 0.00091
GAGTAATTGT | 0.9975 ± 0.0042
GAGTACGAGT | 1.0098 ± 0.001
GAGTACTTTG | 0.9847 ± 0.0015
GAGTAGAGTG | 0.957 ± 0.026
GAGTAGCGGT | 1.01 ± 0.026
GAGTAGGAGG | 0.974 ± 0.051
GAGTAGGGGA | 0.97 ± 0.055
GAGTATAAGC | 0.9844 ± 0.0069
GAGTATGAAG | 1.01 ± 0.031

Sequence | switch fluorescence ratio
GAGTATGCCC | 1.02 ± 0.039
GAGTATTATA | 1 ± 0.025
GAGTCCAGGG | 1.21 ± 0.27
GAGTCGCCTG | 0.991 ± 0.037
GAGTGAAATG | 1.02 ± 0.023
GAGTGACGGA | 1 ± 0.054
GAGTGCGGCT | 1.07 ± 0.16
GAGTGCGGGC | 1.07 ± 0.068
GAGTGGAGAC | 0.977 ± 0.053
GAGTGGAGGC | 1.03 ± 0.05
GAGTGGATAG | 0.996 ± 0.018
GAGTGGGGAG | 0.968 ± 0.045
GAGTGGGGGC | 1.01 ± 0.054
GAGTGGGGGT | 0.977 ± 0.032
GAGTGTCAGC | 1 ± 0.035
GAGTGTGTTC | 1.01 ± 0.024
GAGTTAAACA | 0.994 ± 0.021
GAGTTAACGG | 1 ± 0.0026
GAGTTACGGC | 1.22 ± 0.26
GAGTTACTTT | 1.02 ± 0.023
GAGTTATGGG | 0.9963 ± 0.0048
GAGTTGACGG | 1.03 ± 0.013
GAGTTGGAAG | 1.009 ± 0.0071
GAGTTGGGTC | 1.02 ± 0.021
GAGTTGTCAA | 0.972 ± 0.033

Sequence | switch fluorescence ratio
GAGTTGTGAT | 1 ± 0.019
GAGTTGTGCG | 0.9969 ± 0.001
GAGTTTATGG | 0.984 ± 0.029
GAGTTTGACC | 0.965 ± 0.03
GAGTTTGCGT | 1.03 ± 0.015
GAGTTTGGAC | 0.985 ± 0.058
GAGTTTGTCC | 0.998 ± 0.012
GAGTTTTTGT | 1.01 ± 0.017
GATAAATTTT | 0.974 ± 0.023
GATAACATGT | 1.02 ± 0.029
GATAAGAGCG | 0.975 ± 0.029
GATAAGTATG | 0.975 ± 0.015
GATAATAATG | 1.02 ± 0.0061
GATAATGGGT | 0.976 ± 0.042
GATAATGGTT | 0.964 ± 0.011
GATAATTGGG | 0.9992 ± 0.0079
GATACATGCT | 0.979 ± 0.036
GATACCATGG | 0.985 ± 0.03
GATACCTATG | 1.03 ± 0.027
GATACGCCAC | 2.11 ± 0.06
GATACGTAGG | 1.009 ± 0.0049
GATACTATTT | 0.98 ± 0.03
GATACTCTTA | 1.021 ± 0.0081
GATACTGATC | 1.13 ± 0.042
GATACTGGGT | 0.995 ± 0.046

Sequence | switch fluorescence ratio
GATAGAAAGC | 0.9852 ± 0.0027
GATAGACGCA | 1.1 ± 0.089
GATAGACTTA | 0.949 ± 0.03
GATAGAGGGT | 1.01 ± 0.033
GATAGAGGTG | 1.32 ± 0.62
GATAGATCAG | 0.993 ± 0.018
GATAGGAAAC | 1.12 ± 0.12
GATAGGGAGG | 0.993 ± 0.016
GATAGGGGCG | 0.998 ± 0.026
GATAGGGTGC | 1.14 ± 0.044
GATAGGTGAG | 1.01 ± 0.024
GATAGGTGGT | 0.9691 ± 0.0046
GATAGTTCGT | 1.01 ± 0.021
GATAGTTTAC | 1.01 ± 0.044
GATAGTTTTG | 0.9856 ± 0.0089
GATAGTTTTT | 0.985 ± 0.03
GATATAAAGA | 0.994 ± 0.046
GATATAACAT | 1.028 ± 0.0025
GATATAAGGG | 0.979 ± 0.042
GATATAATGG | 0.9999 ± 0.0019
GATATCCGTA | 0.962 ± 0.015
GATATGGGTA | 1.02 ± 0.035
GATATTAGTG | 0.9827 ± 0.0044
GATATTTAGT | 0.995 ± 0.011
GATATTTCCC | 0.9981 ± 0.0064

Sequence | switch fluorescence ratio
GATATTTTAG | 1.009 ± 0.0087
GATATTTTGT | 0.997 ± 0.031
GATCAACTGT | 1 ± 0.032
GATCAAGGCA | 1.017 ± 0.0012
GATCACAGGG | 1.13 ± 0.01
GATCATAGTT | 0.995 ± 0.013
GATCATCAGG | 1 ± 0.012
GATCATGGGA | 1.03 ± 0.093
GATCGAACGT | 1.017 ± 0.0085
GATCGCCCCG | 1 ± 0.02
GATCGGAGCG | 1.04 ± 0.047
GATCGGAGGG | 1.01 ± 0.027
GATCGGGCCG | 0.975 ± 0.052
GATCGGGGTA | 1.014 ± 0.0071
GATCGTGAGT | 1 ± 0.015
GATCTAAAAC | 0.9594 ± 0.0053
GATCTAGTTA | 0.996 ± 0.054
GATCTATTGT | 0.9619 ± 0.0088
GATCTCAGTT | 1.02 ± 0.036
GATCTCGTGG | 1.01 ± 0.056
GATCTGAAGT | 1.02 ± 0.012
GATCTGGGTT | 0.994 ± 0.031
GATCTTAACG | 0.9912 ± 0.0096
GATCTTTCTG | 0.994 ± 0.041
GATGAAGCCT | 1.17 ± 0.035

Sequence | switch fluorescence ratio
GATGAAGGTT | 0.992 ± 0.027
GATGAATTAG | 1.005 ± 0.0082
GATGACACGA | 1.033 ± 0.01
GATGACAGAG | 0.974 ± 0.047
GATGACCTCA | 0.998 ± 0.093
GATGAGGTGT | 1.01 ± 0.036
GATGATGTGT | 1.02 ± 0.031
GATGATGTTC | 0.9439 ± 0.0072
GATGCAAGGG | 1.83 ± 0.14
GATGCAGTAT | 1.12 ± 0.044
GATGCGGCTA | 1.02 ± 0.018
GATGCTAGAC | 3 ± 0.11
GATGCTGTGG | 0.958 ± 0.003
GATGCTTCTG | 1.02 ± 0.032
GATGGAACTA | 1.01 ± 0.034
GATGGAACTT | 1.02 ± 0.053
GATGGAGTTC | 0.983 ± 0.029
GATGGAGTTT | 1.03 ± 0.011
GATGGATTTG | 1.02 ± 0.033
GATGGCAGCG | 1.05 ± 0.045
GATGGCATAA | 1.01 ± 0.025
GATGGCATCG | 1.02 ± 0.014
GATGGCCATT | 1.02 ± 0.018
GATGGCCGTG | 0.978 ± 0.018
GATGGCGGGA | 1.02 ± 0.025
